Biological target: T1, calcium-signal modulating cyclophilin ligand (CAML), human, full length (human, UniProt P49069 1-296)
T1 construct: mature; In the co-immunoprecipitation it was expressed from pBJ5 in 293T cells
T1 sequence (looked up): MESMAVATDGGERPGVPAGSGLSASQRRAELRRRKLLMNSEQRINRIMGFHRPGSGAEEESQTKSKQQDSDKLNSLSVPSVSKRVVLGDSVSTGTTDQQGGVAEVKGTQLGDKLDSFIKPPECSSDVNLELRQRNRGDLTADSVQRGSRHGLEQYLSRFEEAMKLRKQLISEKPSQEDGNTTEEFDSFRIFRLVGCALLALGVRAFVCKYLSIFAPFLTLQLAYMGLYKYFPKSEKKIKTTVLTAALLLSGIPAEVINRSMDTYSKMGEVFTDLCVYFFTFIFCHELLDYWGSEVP
Experiment: yeast two-hybrid screen of a human B-lymphocyte cDNA library with full-length CAML as bait

binding result: binds
B1: Transmembrane Activator and CAML-Interactor protein TACI-1 (human, full length, 293 amino acids) (receptor)
chain: MSGLGRSRRGGRSRVDQEERFPQGLWTGVAMRSCPEEQYWDPLLGTCMSCKTICNHQSQRTCAAFCRSLSCRKEQGKFYDHLLRDCISCASICGQHPKQCAYFCENKLRSPVNLPPELRRQRSGEVENNSDNSGRYQGLEHRGSEASPALPGLKLSADQVALVYSTLGLCLCAVLCCFLVAVACFLKKRGDPCSCQPRSRPRQSPAKSSQDHAMEAGSPVSTSPEPVETCSFCFPECRAPTQESAVTPGTPDPTCAGRWGCHTRTTVLQPCPHIPDSGLGIVCVPAQEGGPGA
notes: Untagged full-length protein expressed from pBJ5 on TAg Jurkat T cells for flow cytometry and reporter assays; In the yeast two-hybrid tests it was fused to a GAL4 domain (pACT or pAS1); also called TACI protein; TCB
